First the molecules themselves.
B1: recombinant soluble CD40L (residues 118–261) with no N-terminal KGD motif, wild type [not stated] / CD40 fragment (residues 21–144) fused to GST [not stated] (parent complex)
chain 1: QNPQIAAHVISEASSKTTSVLQWAEKGYYTMSNNLVTLENGKQLTVKRQGLYYIYAQVTFCSNREASSQAPFIASLCLKSPGRFERILLRAANTHSSAKPCGQQSIHLGGVFELQPGASVFVNVTDPSQVSHGTGFTSFGLLKL
chain 2: EPPTACREKQYLINSQCCSLCQPGQKLVSDCTEFTETECLPCGESEFLDTWNRETHCHQHKYCDPNLGLRVQQKGTSETDTICTCEEGWHCTSEACESCVLHRSCSPGFGVKQIATGVSDTICE

The source of these data is PMC7960543 (The Journal of Biological Chemistry, 2021).

In the assay the parent is B1. Kind of assay: ELISA; GST-CD40 (21–144) immobilized at 100 μg/ml in PBS; CD40L mutants 20 μg/ml; detection with anti-histidine Abs; read off a plot.
For the variant chain 1 K26T, the response was approximately 0.32 OD450.

Take chain 1 G27E: the response is approximately 0.35 OD450.

On to chain 1 L38P, for which the response is approximately 0.24 OD450.

chain 1 S11R, chain 1 E12G: the response was approximately 0.29 OD450.
